This is an account of results in publication PMC12038006, “Structure and mechanism of a mycobacterial isoniazid efflux pump MsRv1273c/72c with a degenerate nucleotide-binding site” (Nature Communications, 2025).

Assay [1] concerns the target MsRv1272c (MSMEG_5009) from Mycobacterium smegmatis (Mycobacterium smegmatis (Msm) mc2 155) (UniProt A0R272).
The target is the same in assay [2]. The assay can be described thus: SEC.

Regarding “MsRv1273c (MSMEG_5008) from Mycobacterium smegmatis (from UniProt A0R271 1-578) (natural protein)”, in assay [1], the basal ATPase activity of the MsRv1273c/72c complex in peptidiscs (malachite green) (nM Pi min^–1 mg^–1) was 148 and the basal ATPase activity of the MsRv1273c/72c complex in proteoliposomes (malachite green) (nM Pi min^–1 mg^–1) is 181. This substance also showed a stoichiometry N in assay [2] of 1.

One may read the stoichiometry N as a count of units in the complex or per binding partner.
